Data taken from publication PMC9894594, “Progressive Acceleration of Insulin Exposure Over 7 Days of Infusion Set Wear” (Diabetes Technology & Therapeutics, 2023).

Assay: Insulin lispro pharmacokinetics after pump bolus during euglycemic clamp over 7 days of infusion set wear
Type: in vivo, human (participants with type 1 diabetes mellitus)
Conditions: for decline of median total insulin exposure (AUC0–300) from days 0 to 7: n.s.; for AUC0–300 (area under the insulin concentration curve, 0 to 300 min) / Cmax (maximum insulin concentration) / MRT (mean residence time) / t50% (early) (time to reach 50% of Cmax before peak) / t50% (late) (time to reach 50% of Cmax after peak) / tmax (time to maximum insulin concentration): 0.15 U/kg SC bolus by pump, plasma ELISA, median (25th–75th)
Description: We performed a prospectively enrolled randomized sequence two-way crossover study of the investigational CBX (Capillary Biomedical, Inc., Irvine, CA) and a commercial angled Teflon (MiniMed™ Silhouette™; Medtronic Diabetes Care, Northridge, CA; indicated for 3-day use) IIS for two weeklong home use periods with four in-patient euglycemic clamp sessions during each of the 7-day periods. Between the two periods, there was a wash out of 14 days (Supplementary Fig. S1).
Euglycemic clamp experiments were performed at AMCR Institute (in Escondido, CA.) on days 0, 3, 5, and 7 in each treatment period (eight clamps per participant). Participants were admitted to AMCR the evening before the clamp study and glucose was stabilized overnight with intravenous (IV) insulin or glucose as needed. Personal pumps were set to 0.1 U/h overnight and throughout the clamp experiment. Once glucose was stable (95 ± 15 mg/dL) in the morning, IV insulin was stopped 20 min before administering a bolus of 0.15 U/kg of insulin lispro (Eli Lilly, Indianapolis, IN) by pump. Glucose was clamped at 95 ± 15 mg/dL for 300 min or terminated early if runaway hyperglycemia occurred.
Per participant and clamp, 30 plasma samples were collected in regular intervals and stored at −70°C. Samples were analyzed elsewhere (Northern Lights Mercodia Lispro ELISA, Mercodia AB, Uppsala, Sweden; lowest limit of quantification (LLOQ) = 1.0 mU/L, 94% accuracy[7]). Owing to the small sample size and the intrinsically greater variability in pharmacodynamic measures, the PK results are the only results detailed in this report.
PK parameters (area under the insulin concentration curve [AUC] over the first 60 or 300 min, respectively; time to maximum insulin concentration [tmax]; maximum insulin concentration [Cmax]; time to half-maximum insulin concentration, early and late [t50%], and mean residence time [MRT]) were tested for treatment effects. […] Estimated means were then back transformed and the ratio between treatments/days (equality means a ratio of 1) tested for significance using mixed model for repeated measures (two-sided, α = 0.05). For simplicity reasons, all data are presented as median (25th–75th percentiles) or mean ± standard deviation.

[1] = day 0 of IIS wear, CBX IIS, n = 6
[2] = day 0 of IIS wear, Control IIS, n = 6
[3] = day 3 of IIS wear, CBX IIS, n = 6
[4] = day 3 of IIS wear, Control IIS, n = 6
[5] = day 5 of IIS wear, CBX IIS, n = 6
[6] = day 5 of IIS wear, Control IIS, n = 6
[7] = day 7 of IIS wear, CBX IIS, n = 5
[8] = day 7 of IIS wear, Control IIS, n = 5

insulin lispro
decline of median total insulin exposure (AUC0–300) from days 0 to 7 (CBX group): 22% | acceleration of median tmax by day 7 vs day 0 (Control group): 63% | increase of median early exposure (AUC0–60) by day 7 vs day 0 (Control group): 34% | decline of median total insulin exposure (AUC0–300) from days 0 to 7 (Control group): 26% | AUC0–300 (area under the insulin concentration curve, 0 to 300 min) [1]: 8562 (6576–11416) mU/(min·L) | Cmax (maximum insulin concentration) [1]: 60.4 (33.5–73.6) mU/L | MRT (mean residence time) [1]: 129.5 (117.1–137.5) min | t50% (early) (time to reach 50% of Cmax before peak) [1]: 23.3 (11.8–34.1) min | t50% (late) (time to reach 50% of Cmax after peak) [1]: 163.1 (157.3–181.8) min | tmax (time to maximum insulin concentration) [1]: 65.0 (50.0–90.0) min | AUC0–300 (area under the insulin concentration curve, 0 to 300 min) [2]: 8894 (7599–9870) mU/(min·L) | Cmax (maximum insulin concentration) [2]: 61.9 (45.0–82.5) mU/L | MRT (mean residence time) [2]: 118.0 (97.9–131.0) min | t50% (early) (time to reach 50% of Cmax before peak) [2]: 27.4 (19.8–32.7) min | t50% (late) (time to reach 50% of Cmax after peak) [2]: 156.5 (121.2–174.5) min | tmax (time to maximum insulin concentration) [2]: 67.5 (45.0–80.0) min | AUC0–300 (area under the insulin concentration curve, 0 to 300 min) [3]: 8281 (7176–10737) mU/(min·L) | Cmax (maximum insulin concentration) [3]: 69.0 (56.2–71.5) mU/L | MRT (mean residence time) [3]: 114.4 (105.9–116.9) min | t50% (early) (time to reach 50% of Cmax before peak) [3]: 18.0 (11.2–19.2) min | t50% (late) (time to reach 50% of Cmax after peak) [3]: 135.4 (120.4–150.0) min | tmax (time to maximum insulin concentration) [3]: 42.5 (35.0–45.0) min | AUC0–300 (area under the insulin concentration curve, 0 to 300 min) [4]: 7434 (6600–8282) mU/(min·L) | Cmax (maximum insulin concentration) [4]: 60.2 (56.2–69.7) mU/L | MRT (mean residence time) [4]: 112.4 (104.1–124.3) min | t50% (early) (time to reach 50% of Cmax before peak) [4]: 15.7 (12.2–25.6) min | t50% (late) (time to reach 50% of Cmax after peak) [4]: 119.3 (98.8–152.7) min | tmax (time to maximum insulin concentration) [4]: 32.5 (25.0–50.0) min | AUC0–300 (area under the insulin concentration curve, 0 to 300 min) [5]: 8175 (7194–8538) mU/(min·L) | Cmax (maximum insulin concentration) [5]: 93.6 (73.9–104.4) mU/L | MRT (mean residence time) [5]: 89.0 (76.9–91.7) min | t50% (early) (time to reach 50% of Cmax before peak) [5]: 12.4 (10.3–14.2) min | t50% (late) (time to reach 50% of Cmax after peak) [5]: 74.8 (66.7–76.2) min | tmax (time to maximum insulin concentration) [5]: 25.0 (25.0–30.0) min | AUC0–300 (area under the insulin concentration curve, 0 to 300 min) [6]: 7253 (5949–7625) mU/(min·L) | Cmax (maximum insulin concentration) [6]: 72.6 (54.1–91.0) mU/L | MRT (mean residence time) [6]: 88.7 (85.7–110.5) min | t50% (early) (time to reach 50% of Cmax before peak) [6]: 11.5 (8.2–13.1) min | t50% (late) (time to reach 50% of Cmax after peak) [6]: 69.3 (68.2–88.3) min | tmax (time to maximum insulin concentration) [6]: 25.0 (25.0–30.0) min | AUC0–300 (area under the insulin concentration curve, 0 to 300 min) [7]: 6684 (6402–8342) mU/(min·L) | Cmax (maximum insulin concentration) [7]: 92.3 (78.4–101.5) mU/L | MRT (mean residence time) [7]: 75.7 (66.7–87.0) min | t50% (early) (time to reach 50% of Cmax before peak) [7]: 11.6 (9.5–14.2) min | t50% (late) (time to reach 50% of Cmax after peak) [7]: 62.5 (60.7–68.8) min | tmax (time to maximum insulin concentration) [7]: 25.0 (25.0–25.0) min | AUC0–300 (area under the insulin concentration curve, 0 to 300 min) [8]: 6603 (5822–6773) mU/(min·L) | Cmax (maximum insulin concentration) [8]: 80.9 (79.0–84.0) mU/L | MRT (mean residence time) [8]: 75.4 (62.2–98.6) min | t50% (early) (time to reach 50% of Cmax before peak) [8]: 12.3 (11.5–16.4) min | t50% (late) (time to reach 50% of Cmax after peak) [8]: 63.5 (57.5–77.9) min | tmax (time to maximum insulin concentration) [8]: 25.0 (20.0–30.0) min | decline of AUC0–300 from days 0 to 7 (pooled data from both IIS groups, 0.15 U/kg bolus): ~24%
